The record followed here is patent publication US20150197571A1.

In experiment [1] the target is human PD-L1 expressed on 300.19 cells (human) (UniProt Q9NZQ7). The experiment in a line: FACS blockade, B7-1-hIgG on 300-hPD-L1 cells, mAb 20 ug/ml.
Experiment [2] shares this target. The experiment in a line: FACS blockade, B7-1-hIgG on 300-hPD-L1 cells, mAb 0.078 ug/ml.
For experiment [3] the target is unchanged. The experiment in a line: FACS blockade, B7-1-hIgG on 300-hPD-L1 cells, mAb 0.0195 ug/ml.
Experiment [4] shares this target. The experiment in a line: FACS blockade, B7-1-hIgG on 300-hPD-L1 cells, mAb '0.0.39' [sic] ug/ml.
The target is the same in experiment [5]. Description: FACS on hPD-L1 300 cells, antibody 1 ug/ml.
In experiment [6] the target is T1, human PD-L2 expressed on 300.19 cells (human) (UniProt Q9BQ51).
T1 sequence: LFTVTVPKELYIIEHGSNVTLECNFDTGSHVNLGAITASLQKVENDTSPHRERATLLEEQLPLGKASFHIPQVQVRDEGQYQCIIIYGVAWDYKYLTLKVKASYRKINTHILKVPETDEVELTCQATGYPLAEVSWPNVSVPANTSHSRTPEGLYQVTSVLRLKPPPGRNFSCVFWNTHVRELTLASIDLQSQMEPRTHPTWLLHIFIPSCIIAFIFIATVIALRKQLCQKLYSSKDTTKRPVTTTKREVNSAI
Description: FACS on hPD-L2 300 cells, antibody 1 ug/ml.

Experiment [7] has as its target human PD-L1 expressed on 300.19 cells (human) (UniProt Q9NZQ7). The experiment in a line: FACS on 300.19 cells expressing human PD-L1.
Experiment [8] deals with T1, human PD-L2 expressed on 300.19 cells (human). Description: FACS on 300.19 cells expressing human PD-L2.
Experiment [9] has as its target human PD-L1 expressed on 300.19 cells (human) (UniProt Q9NZQ7). Description: FACS on hPD-L1 300 cells, antibody 10 ug/ml.
In experiment [10] the target is T1, human PD-L2 expressed on 300.19 cells (human). Description: FACS on hPD-L2 300 cells, antibody 10 ug/ml.
Experiment [11] deals with human PD-L1 expressed on 300.19 cells (human) (UniProt Q9NZQ7). Description: FACS on hPD-L1 300 cells, antibody 0.1 ug/ml.
Experiment [12] concerns the target T1, human PD-L2 expressed on 300.19 cells (human). Description: FACS on hPD-L2 300 cells, antibody 0.1 ug/ml.
The target of experiment [13] is human PD-L1 expressed on 300.19 cells (human) (UniProt Q9NZQ7). Description: FACS blockade, PD-1-hIgG1 on PD-L1 300.19 cells.
The target in experiment [14] is T1, human PD-L2 expressed on 300.19 cells (human). Description: FACS blockade, PD-1-hIgG1 on PD-L2 300.19 cells.
Experiment [15] deals with human PD-L1 expressed on 300.19 cells (human) (UniProt Q9NZQ7). Description: FACS blockade, B7-1-hIgG on 300-hPD-L1 cells, mAb 5 ug/ml.
Experiment [16] shares this target. Description: FACS blockade, B7-1-hIgG on 300-hPD-L1 cells, mAb 10 ug/ml.
Experiment [17] has the same target. Description: FACS competition, PD-1-Ig on hPD-L1 300 cells, mAb 10 ug/ml.
Experiment [18] has the same target. Description: FACS competition, PD-1-Ig on hPD-L1 300 cells, mAb 90 ug/ml.
In experiment [19] the target is T1, human PD-L2 expressed on 300.19 cells (human). Description: FACS competition, PD-1-Ig on hPD-L2 300 cells, mAb 10 ug/ml.
Experiment [20] shares this target. The experiment in a line: FACS competition, PD-1-Ig on hPD-L2 300 cells, mAb 30 ug/ml.
Experiment [21] shares this target. The experiment in a line: FACS competition, PD-1-Ig on hPD-L2 300 cells, mAb 90 ug/ml.
The target in experiment [22] is human PD-L1 expressed on 300.19 cells (human) (UniProt Q9NZQ7). Description: FACS blockade, B7-1-hIgG on 300-hPD-L1 cells, mAb 2.5 ug/ml.
The target is the same in experiment [23]. The experiment in a line: FACS competition, PD-1-Ig on hPD-L1 300 cells, mAb 1.1 ug/ml.
For experiment [24] the target is unchanged. Description: FACS competition, PD-1-Ig on hPD-L1 300 cells, mAb 3.3 ug/ml.
Experiment [25] has as its target T1, human PD-L2 expressed on 300.19 cells (human). Description: FACS competition, PD-1-Ig on hPD-L2 300 cells, mAb 1.1 ug/ml.
The target is the same in experiment [26]. Description: FACS competition, PD-1-Ig on hPD-L2 300 cells, mAb 3.3 ug/ml.
For experiment [27], the target named is human PD-L1 expressed on 300.19 cells (human) (UniProt Q9NZQ7). Description: FACS blockade, B7-1-hIgG on 300-hPD-L1 cells, mAb 1.25 ug/ml.
The target is the same in experiment [28]. The experiment in a line: FACS competition, PD-1-Ig on hPD-L1 300 cells, mAb 0.04 ug/ml.
Experiment [29] shares this target. The experiment in a line: FACS competition, PD-1-Ig on hPD-L1 300 cells, mAb 0.37 ug/ml.
In experiment [30] the target is T1, human PD-L2 expressed on 300.19 cells (human). Description: FACS competition, PD-1-Ig on hPD-L2 300 cells, mAb 0.04 ug/ml.
Experiment [31] has the same target. Description: FACS competition, PD-1-Ig on hPD-L2 300 cells, mAb 0.12 ug/ml.
For experiment [32] the target is unchanged. Description: FACS competition, PD-1-Ig on hPD-L2 300 cells, mAb 0.37 ug/ml.
The target of experiment [33] is human PD-L1 expressed on 300.19 cells (human) (UniProt Q9NZQ7). The experiment in a line: FACS blockade, B7-1-hIgG on 300-hPD-L1 cells, mAb 0.156 ug/ml.
For experiment [34] the target is unchanged. The experiment in a line: FACS blockade, B7-1-hIgG on 300-hPD-L1 cells, mAb 0.313 ug/ml.
The target is the same in experiment [35]. Description: FACS blockade, B7-1-hIgG on 300-hPD-L1 cells, mAb 0.625 ug/ml.
For experiment [36] the target is unchanged. Description: FACS blockade, B7-1-hIgG on 300-hPD-L1 cells, mAb 0.0098 ug/ml.
Experiment [37] has as its target T1, human PD-L2 expressed on 300.19 cells (human). The experiment in a line: FACS on hPD-L2 300 cells, supernatant 1 to 10.
The target is the same in experiment [38]. Description: FACS on hPD-L2 300 cells, supernatant 1 to 100.
Experiment [39] has the same target. Description: FACS on hPD-L2 300 cells, supernatant undiluted.
Experiment [40] shares this target. Description: FACS, hybridoma supernatant on 300.19 cells expressing human PD-L2. A general note: Flow cytometry measures light scatter and fluorescence of single cells or particles in a stream.

UniProt Q9NZQ7, sequence (Q9NZQ7 19-290): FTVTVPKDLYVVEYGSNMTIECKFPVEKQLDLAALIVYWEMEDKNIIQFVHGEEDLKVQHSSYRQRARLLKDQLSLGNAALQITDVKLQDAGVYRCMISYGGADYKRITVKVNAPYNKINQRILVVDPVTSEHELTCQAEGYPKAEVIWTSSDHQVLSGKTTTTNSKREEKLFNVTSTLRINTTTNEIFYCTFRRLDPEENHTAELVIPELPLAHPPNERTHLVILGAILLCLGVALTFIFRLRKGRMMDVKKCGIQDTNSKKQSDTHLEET

As for C1.18 mIgG2a control (antibody), the Mean of PE Signal (bound B7-1-Ig) in experiment [1] turned out to be 4540; in [2], 397; in [3], 3500; in experiment [4], 4280.
For MOPC31C isotype control antibody, the Mean of PE signal was determined as 183 in experiment [5]; 164 in experiment [6]; 263 in [9]; 173 in experiment [10]; 250 in experiment [11]; 149 in [12]. Also, the results for the MFI in [7] and in experiment [8] were 45 and 19, respectively. Also, the results for the MFI of bound PD-1-Ig (inversely proportional to blockage) in experiment [13] and in experiment [14] were 26700 and 19200, respectively. Moreover, the Mean of PE Signal (bound B7-1-Ig) in experiment [15] came out at 3580; in [16] it was 3550; in experiment [1], 3590; in [22] it was 3880; in experiment [27], 3490; in experiment [2], 4320. Also, the Mean of PE Signal (bound B7-1-Ig) in [33] was determined as 3720; in [34], 3960; in experiment [35], 3710; in experiment [36] it was 4410; in [3] it was 4760; in experiment [4], 3990. Moreover, the Mean of PE Signal (bound PD-1-Ig) in experiment [17] is 12600; in experiment [18], 11800; in [19], 52500; in experiment [20], 54200; in experiment [21], 53500; in experiment [23], 13600. For the same molecule, the Mean of PE Signal (bound PD-1-Ig) came to 11900 in [24]; 58400 in experiment [25]; 52600 in experiment [26]; 13300 in [28]; 13500 in experiment [29]; 60800 in experiment [30]. For the same molecule, the values for the Mean of PE Signal (bound PD-1-Ig) in [31] and in [32] were 59100 and 60600, respectively.

B1: 4H1 monoclonal antibody (antibody, V domains shown)
VH: DVQLQESGPGLVKPSQSLSLTCTVTDYSITSDYAWTWIRQFPGNKLEWMGYITYRGTTRYNPSLTSRISFTRDTSKNQLFLQLNSVTTEDTGTYCCARSMITTGYYAMDYWGQGTSVTVSS
VL: DIVMTQSHKFMSTSVGDRVSISCKASQDVGISVAWYQQKPGQSPKLLIYWASTRHTGVPVRFTGSGSGTDFTLTISNVQSEDLADYFCQQYSSYPPTFGAGTKLELK
On to B1, for which the Mean of PE signal in experiment [37] came out at 757; in experiment [38] it was 672; in experiment [39], 840. Also, the MFI of bound PD-1-Ig (inversely proportional to blockage) in experiment [14] turned out to be 21100. The Mean of PE Signal (bound PD-1-Ig) in experiment [19] stood at 56800; in experiment [20], 56100; in experiment [21] it was 52200; in [25] it was 54600; in [26] it was 56000; in experiment [30], 54700. Also, the Mean of PE Signal (bound PD-1-Ig) in experiment [31] stood at 52500; in [32], 52400. For the same molecule, the MFI in experiment [40] was 93.
